Series [1] addresses rhIE1(36-395), core domain of rhesus cytomegalovirus IE1, lysine-methylated (rhesus cytomegalovirus (rhesus macaque CMV)). Briefly: crystal structure; rhIE1(36-395), lysine-methylated; hanging drop, 0.4 M magnesium formate, 15% (w/v) PEG 3350; monoclinic P2_1 crystals and, after controlled dehydration, tetragonal P4_3 crystals (2.3 Å).
Series [2] concerns the molecule itself. Kind of series: SEC; Superdex 200 prepgrade; 25 mM Tris, 150 mM NaCl, 10 mM DTT, pH 7.5; calibrated with the Bio-Rad gel filtration standard.

Consider “rhIE1(36-395), core domain of rhesus cytomegalovirus IE1, lysine-methylated (domain or fragment)”, for which the stoichiometry N in series [1] turned out to be 2.

B1: hIE1_(CORE)(14-382), recombinant (domain or fragment)
chain: PDEGPSSKVPRPETPVTKATTFLQTMLRKEVNSQLSLGDPLFPELAEESLKTFEQVTEDCNENPEKDVLAELVKQIKVRVDMVRHRIKEHMLKKYTQTEEKFTGAFNMMGGCLQNALDILDKVHEPFEEMKCIGLTMQSMYENYIVPEDKREMWMACIKELHDVSKGAANKLGGALQAKARAKKDELRRKMMYMCYRNIEFFTKNSAFPKTTNGCSQAMAALQNLPQCSPDEIMAYAQKIFKILDEERDKVLTHIDHIFMDILTTCVETMCNEYKVTSDACMMTMYGGISLLSEFCRVLCCYVLEETSVMLAKRPLITKPEVISVMKRRIEEICMKVFAQYILGADPLRVCSPSVDDLRAIAEESDEEE
notes: also called hIE1(14-382); source: E. coli BL21(DE3), purified (glutathione sepharose, PreScission cleavage, SEC)
With B1, the binding result in series [2] was “binds”.

Source of the values: PMC4239116, “Crystal Structure of Cytomegalovirus IE1 Protein Reveals Targeting of TRIM Family Member PML via Coiled-Coil Interactions” (PLoS Pathogens, 2014).
